Measured values from patent US20220064331A1 (Genentech, published 2022).

T1: mouse KLB (mouse, UniProt Q99N32 53-990)
T1 construct: expressed from KLB cDNA on HEK293T cells and read by FACS; also called msKLB
T1 sequence: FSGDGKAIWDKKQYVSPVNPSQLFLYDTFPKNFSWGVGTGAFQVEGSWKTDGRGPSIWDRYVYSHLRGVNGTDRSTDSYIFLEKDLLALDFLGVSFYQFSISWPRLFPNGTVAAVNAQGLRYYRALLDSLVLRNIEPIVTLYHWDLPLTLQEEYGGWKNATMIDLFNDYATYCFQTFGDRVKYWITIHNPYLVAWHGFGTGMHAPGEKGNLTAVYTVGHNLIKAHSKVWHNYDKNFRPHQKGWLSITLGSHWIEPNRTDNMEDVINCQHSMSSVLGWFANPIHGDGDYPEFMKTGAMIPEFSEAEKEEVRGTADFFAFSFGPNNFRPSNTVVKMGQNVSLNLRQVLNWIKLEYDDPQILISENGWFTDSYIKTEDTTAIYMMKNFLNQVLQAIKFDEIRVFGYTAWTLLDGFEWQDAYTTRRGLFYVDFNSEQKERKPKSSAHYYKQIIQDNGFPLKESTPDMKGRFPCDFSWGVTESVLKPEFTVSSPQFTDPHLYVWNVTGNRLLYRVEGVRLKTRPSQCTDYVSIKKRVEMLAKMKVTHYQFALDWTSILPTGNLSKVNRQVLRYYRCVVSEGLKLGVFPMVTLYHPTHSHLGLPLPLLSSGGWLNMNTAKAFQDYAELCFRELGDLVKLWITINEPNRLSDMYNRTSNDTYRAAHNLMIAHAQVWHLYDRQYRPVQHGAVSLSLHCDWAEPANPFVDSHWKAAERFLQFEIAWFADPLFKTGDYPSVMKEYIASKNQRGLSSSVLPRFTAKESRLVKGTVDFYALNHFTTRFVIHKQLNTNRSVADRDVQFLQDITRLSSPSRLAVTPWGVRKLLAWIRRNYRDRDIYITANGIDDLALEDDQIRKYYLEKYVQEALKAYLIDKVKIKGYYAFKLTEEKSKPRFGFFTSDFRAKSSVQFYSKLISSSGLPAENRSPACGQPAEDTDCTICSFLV

T2: rat KLB (+N-ter FLAG) (rat, UniProt Q99N32 53-989 (mouse entry))
T2 construct: expressed from KLB cDNA on HEK293T cells and read by FACS
T2 chain: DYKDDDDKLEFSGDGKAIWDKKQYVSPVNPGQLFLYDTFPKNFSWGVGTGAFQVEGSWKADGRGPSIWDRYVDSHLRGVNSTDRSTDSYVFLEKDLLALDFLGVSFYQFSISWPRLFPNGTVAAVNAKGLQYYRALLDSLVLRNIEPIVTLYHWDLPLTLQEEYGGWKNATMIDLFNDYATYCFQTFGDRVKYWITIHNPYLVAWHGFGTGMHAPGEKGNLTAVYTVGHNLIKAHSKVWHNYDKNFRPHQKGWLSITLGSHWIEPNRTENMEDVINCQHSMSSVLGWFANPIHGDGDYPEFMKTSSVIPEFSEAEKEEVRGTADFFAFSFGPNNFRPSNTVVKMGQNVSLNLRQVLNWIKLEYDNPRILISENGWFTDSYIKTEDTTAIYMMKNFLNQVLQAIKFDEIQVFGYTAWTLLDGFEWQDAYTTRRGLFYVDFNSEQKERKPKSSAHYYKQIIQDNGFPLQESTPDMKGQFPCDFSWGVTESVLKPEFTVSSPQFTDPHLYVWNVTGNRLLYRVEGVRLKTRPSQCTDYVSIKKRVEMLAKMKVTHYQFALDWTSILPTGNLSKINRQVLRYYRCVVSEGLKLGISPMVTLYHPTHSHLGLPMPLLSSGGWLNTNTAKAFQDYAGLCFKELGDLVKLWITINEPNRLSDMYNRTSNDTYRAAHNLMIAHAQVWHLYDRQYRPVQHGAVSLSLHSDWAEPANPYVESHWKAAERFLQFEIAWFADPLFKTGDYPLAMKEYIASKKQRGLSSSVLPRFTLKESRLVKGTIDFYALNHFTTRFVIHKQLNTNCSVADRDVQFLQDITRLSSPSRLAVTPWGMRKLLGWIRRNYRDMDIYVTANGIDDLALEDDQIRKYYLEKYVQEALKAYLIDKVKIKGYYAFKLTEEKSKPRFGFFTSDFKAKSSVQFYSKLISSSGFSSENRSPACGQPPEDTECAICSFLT

T3: rhesus monkey KLB (+N-ter FLAG) (rhesus monkey, UniProt Q86Z14 53-992 (human entry))
T3 construct: expressed from KLB cDNA on HEK293T cells and read by FACS
T3 chain: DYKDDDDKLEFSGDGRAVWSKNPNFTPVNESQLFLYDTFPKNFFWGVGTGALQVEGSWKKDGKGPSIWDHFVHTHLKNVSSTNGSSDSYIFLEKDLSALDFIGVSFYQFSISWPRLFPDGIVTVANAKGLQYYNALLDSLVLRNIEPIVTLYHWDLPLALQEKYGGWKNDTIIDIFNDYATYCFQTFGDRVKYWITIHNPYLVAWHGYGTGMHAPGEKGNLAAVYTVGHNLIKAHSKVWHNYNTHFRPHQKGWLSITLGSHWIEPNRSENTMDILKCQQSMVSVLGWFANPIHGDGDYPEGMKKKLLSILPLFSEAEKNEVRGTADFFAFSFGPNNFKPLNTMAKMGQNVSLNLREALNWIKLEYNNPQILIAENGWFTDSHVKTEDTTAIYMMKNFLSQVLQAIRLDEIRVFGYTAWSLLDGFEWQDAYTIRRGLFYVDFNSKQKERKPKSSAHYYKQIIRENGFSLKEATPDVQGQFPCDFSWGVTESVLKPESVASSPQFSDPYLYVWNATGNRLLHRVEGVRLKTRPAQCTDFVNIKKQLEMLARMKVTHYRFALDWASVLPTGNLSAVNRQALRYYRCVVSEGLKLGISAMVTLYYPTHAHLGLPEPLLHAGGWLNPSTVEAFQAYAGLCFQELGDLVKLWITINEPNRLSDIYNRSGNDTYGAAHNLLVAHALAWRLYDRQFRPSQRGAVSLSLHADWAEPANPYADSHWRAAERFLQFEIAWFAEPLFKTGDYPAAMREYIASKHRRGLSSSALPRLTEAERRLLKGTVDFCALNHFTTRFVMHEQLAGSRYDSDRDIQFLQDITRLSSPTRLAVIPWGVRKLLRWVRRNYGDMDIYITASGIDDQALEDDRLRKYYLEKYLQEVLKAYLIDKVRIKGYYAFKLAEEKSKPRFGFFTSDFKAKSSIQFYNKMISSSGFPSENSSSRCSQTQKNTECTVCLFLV

B1: 11D4 (antibody, V domains shown)
VH: QVQVKESGPGLVAPSQSLSITCTVSGFSLTNYGVSWIRQPPGKGLEWLGVIWGDGSINYHSALISRLTITKDNSKSQVFLKLNSLEADDTATYYCAKTHDWFDYWGQGTLVTVSA
VL: DIQMTQTPSSLSASLGDRVTINCRASQDISNYFNWYQQKPNGTIKLLIYYTSRLQSGVPSRFSGSGSGTDYSLTISNLEQEDKATYFCHQVRTLPWTFGGGTKLEIK
notes: murine hybridoma-derived anti-KLB antibody; also called KLBmAb5
B2: 14E6 (antibody, V domains shown)
VH: EVPLQQSGPELVKPGATVKISCKPSGDTFTEYTMNWVRQSHGKSLEWIGGINPNNGETSYNQKFKGKATLTVDKSSSTAFMDLRILTSEDSAVYFCARKTTNYWGQGTTLIVSS
VL: DIQMTQSPSSLSASLGERVSLTCRASQEISGYLSWLQQKPDGTIKRLIYAASTLDSGVPRRFSGSRSGSDYSLTISSLESEDFADYYCLQYGSYPWTFGGGTKLELK
notes: murine hybridoma-derived anti-KLB antibody
B3: 46C3 (antibody, V domains shown)
VH: EVQLQQSGAELVKPGASVKLSCTASDFNIIDTYIHWVKQRPEQGLEWIGRIDPANGNTKYDPKFQDKAALTSDTDSNTAYLLFNSLTSEDTAVYYCARGTSYSWFAYWGQGTLVSVSA
VL: AVLMTQTPLSLPVSLGDQASISCRSSQNIVHSDGNTYLEWYLQKPGQSPKLLIYKVSNRFSGVPDRFSGSGSGRDFTLKISRVEAGDLGVYYCFQGSHVLTFGAGTRLELK
notes: as for B2
B4: 11F1 (antibody, V domains shown)
VH: EVQLVESGGGLVKPGGSLKLSCAPSGFTFSSYGISWVRQTPEKRLEWVATVSSGGRYTYYPDSVKGRFTISRDNAENTLYLQMSSLRSEDTAMYYCTRGGDGYALDYWGQGTSVTVSS
VL: DIQMTQTTSSLSASLGDRVTIICSASQVISNYLNWYQQKPDGTVKLLIYFTSSLRSGVPSRFSGSGSGTDYSLTISNLEPEDVATYFCQQYSKLPWTFGGGTKLELK
notes: as for B2
B5: 6C1 (antibody, V domains shown)
VH: QVQLQQSGDELMKPGASVKISCKVTGNTFSSYWIEWVKQRPGHGLEWIGEILPGSDSTKYVEKFKVKATFTADTSSNTAYMQLSSLTSEDSAVYYCARGGYHYPGWLVYWGQGTLVTVSA
VL: DIVMTQSQKFMSTSVGDRVSVTCKASQNVDSYVAWYQQKAGQSPKPLIYSASYRFSGVPDRFTGSGSGTEFTLTISNVQSEDLAEYFCQQYNISPYTFGGGTKLEIK
notes: murine hybridoma-derived anti-KLB antibody; also called KLBmAb4
B6: 14C10 (antibody, V domains shown)
VH: QVTLKESGPGILQPSQTLSLTCSFSGFSLSTSAMGIGWIRQPSGKGLEWLAHIWWDDDKRYNPALKSRLTISKDTSRNQVFLKIASVDTADTATYFCARIDGIYDGSFYAMDYWGQGTSVTVSS
VL: DIVLTQSPASLAVSLGQRATISCRASESVDSYGNSFMHWYQQKPGQPPKLLIYRASNLESGIPARFSGSGSRTDFTLTINPVEADDVANYYCQQSNEDYTFGGGTKLEIK
notes: murine hybridoma-derived anti-KLB antibody; also called KLBmAb3

target: T1, mouse KLB; test: FACS on transfected HEK293T cells
Experimental: (§1) Species cross reactivity of the disclosed anti-KLB antibodies were analyzed by FACS analysis using KLB cDNA from mouse, rat, rabbit, cynomolgus monkey and rhesus monkey cloned into pRK mammalian expression vectors transiently transfected into HEK293T cells. The KLB extracellular domain polypeptide sequences that were expressed are as follows: […]

| binding result | Binder |
| --- | --- |
| no binding | B1 |
| binds | B2 |
| no binding | B3 |
| no binding | B4 |
| no binding | B5 |
| no binding | B6 |

Target: T2, rat KLB (+N-ter FLAG)
Test: FACS on transfected HEK293T cells
Experimental: as §1

| binding result | Binder |
| --- | --- |
| no binding | B1 |
| binds | B2 |
| no binding | B3 |
| no binding | B4 |
| no binding | B5 |
| no binding | B6 |

Target: T3, rhesus monkey KLB (+N-ter FLAG)
Test: FACS on transfected HEK293T cells
Experimental: as §1

| binding result | Binder |
| --- | --- |
| binds | B1 |
| binds | B2 |
| no binding | B3 |
| binds | B4 |
| binds | B5 |
| binds | B6 |
